PMC8533099, “Kinetic Analysis of the Interaction of Nicking Endonuclease BspD6I with DNA”

Legend:
Settings in all cases: blunt
Nt.BspD6I [1] = biological target: T1, Nt.BspD6I (UniProt A3FEV7 1-604); assay: stopped-flow Trp fluorescence; 10 mM Mg2+; kobs k1 126 s-1, k2 7.0 s-1; Stopped-flow, 37 °C, 10 mM CaCl2 or 10 mM MgCl2 (or 0.4 mM EDTA without divalent metal); 1 µM enzyme (Trp) or 1 µM DNA (FRET); buffer, salt and pH not in the supplied text
T1 sequence: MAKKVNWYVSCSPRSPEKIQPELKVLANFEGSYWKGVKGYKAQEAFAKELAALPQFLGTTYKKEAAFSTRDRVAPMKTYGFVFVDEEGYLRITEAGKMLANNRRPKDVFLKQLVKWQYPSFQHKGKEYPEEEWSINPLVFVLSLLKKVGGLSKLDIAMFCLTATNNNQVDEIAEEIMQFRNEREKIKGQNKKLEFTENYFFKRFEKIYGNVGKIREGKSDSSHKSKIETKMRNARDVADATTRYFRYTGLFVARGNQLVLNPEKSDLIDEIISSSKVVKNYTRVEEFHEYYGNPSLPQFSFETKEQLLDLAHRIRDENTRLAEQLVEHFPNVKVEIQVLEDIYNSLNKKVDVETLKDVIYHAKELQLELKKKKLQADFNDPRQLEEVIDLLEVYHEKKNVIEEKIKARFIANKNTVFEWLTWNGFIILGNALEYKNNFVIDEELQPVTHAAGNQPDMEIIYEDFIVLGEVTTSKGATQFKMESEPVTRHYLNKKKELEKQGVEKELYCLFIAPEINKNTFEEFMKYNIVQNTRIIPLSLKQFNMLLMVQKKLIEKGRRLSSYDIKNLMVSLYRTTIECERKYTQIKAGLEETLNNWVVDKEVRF

Nt.BspD6I [2] = biological target: T1, Nt.BspD6I; assay: stopped-flow Trp fluorescence; 0.4 mM EDTA, no divalent metal; Stopped-flow, 37 °C, 10 mM CaCl2 or 10 mM MgCl2 (or 0.4 mM EDTA without divalent metal); 1 µM enzyme (Trp) or 1 µM DNA (FRET); buffer, salt and pH not in the supplied text
Nt.BspD6I [3] = biological target: T1, Nt.BspD6I; assay: stopped-flow Trp fluorescence; 10 mM Mg2+; kobs k1 232 s-1, k2 21 s-1; Stopped-flow, 37 °C, 10 mM CaCl2 or 10 mM MgCl2 (or 0.4 mM EDTA without divalent metal); 1 µM enzyme (Trp) or 1 µM DNA (FRET); buffer, salt and pH not in the supplied text
Nt.BspD6I [4] = biological target: T1, Nt.BspD6I; assay: stopped-flow Trp fluorescence; 10 mM Ca2+; kobs k1 261 s-1, k2 6.2 s-1; Stopped-flow, 37 °C, 10 mM CaCl2 or 10 mM MgCl2 (or 0.4 mM EDTA without divalent metal); 1 µM enzyme (Trp) or 1 µM DNA (FRET); buffer, salt and pH not in the supplied text
Nt.BspD6I [5] = biological target: T1, Nt.BspD6I; assay: stopped-flow Trp fluorescence; 10 mM Mg2+; kobs k1 490 s-1, k2 128 s-1; Stopped-flow, 37 °C, 10 mM CaCl2 or 10 mM MgCl2 (or 0.4 mM EDTA without divalent metal); 1 µM enzyme (Trp) or 1 µM DNA (FRET); buffer, salt and pH not in the supplied text
Nt.BspD6I [6] = biological target: T1, Nt.BspD6I; assay: stopped-flow Trp fluorescence; 10 mM Mg2+; Stopped-flow, 37 °C, 10 mM CaCl2 or 10 mM MgCl2 (or 0.4 mM EDTA without divalent metal); 1 µM enzyme (Trp) or 1 µM DNA (FRET); buffer, salt and pH not in the supplied text
Nt.BspD6I [7] = biological target: T1, Nt.BspD6I; assay: stopped-flow Trp fluorescence; 10 mM Ca2+; Stopped-flow, 37 °C, 10 mM CaCl2 or 10 mM MgCl2 (or 0.4 mM EDTA without divalent metal); 1 µM enzyme (Trp) or 1 µM DNA (FRET); buffer, salt and pH not in the supplied text
Nt.BspD6I [8] = biological target: T1, Nt.BspD6I; assay: stopped-flow Trp fluorescence; 10 mM Mg2+; kobs k1 145 s-1, k2 10.0 s-1; Stopped-flow, 37 °C, 10 mM CaCl2 or 10 mM MgCl2 (or 0.4 mM EDTA without divalent metal); 1 µM enzyme (Trp) or 1 µM DNA (FRET); buffer, salt and pH not in the supplied text

B1: V-26 (dsDNA)
DNA 1: CGTGGTCTCGAGTCTTCTCAAGGTAC
DNA 2: GTACCTTGAGAAGACTCGAGACCACG
binding result (Nt.BspD6I [1]): binds

B2: VI-30 (dsDNA)
DNA 1: GCGTGGTCTCGAGTCTTCTCAAGGTACCTG
DNA 2: CAGGTACCTTGAGAAGACTCGAGACCACGC
Kd (Nt.BspD6I [2]): 13 ± 3 nM

B3: III-21 (dsDNA)
DNA 1: GGTCTCGAGTCTTCTCAAGGT
DNA 2: ACCTTGAGAAGACTCGAGACC
binding result (Nt.BspD6I [3]): binds

B4: II-19 (dsDNA)
DNA 1: GGTCTCGAGTCTTCTCAAG
DNA 2: CTTGAGAAGACTCGAGACC
binding result (Nt.BspD6I [4]): binds

B5: I-17 (dsDNA)
DNA 1: GGTCTCGAGTCTTCTCA
DNA 2: TGAGAAGACTCGAGACC
binding result (Nt.BspD6I [5]): binds

B6: VI-30N (dsDNA)
DNA 1: GTATGAAGCTAGAGCCAGGTTGGCAGCATC
DNA 2: GATGCTGCCAACCTGGCTCTAGCTTCATAC
Kd (Nt.BspD6I [6]): 70 ± 20 nM | Kd (Nt.BspD6I [7]): 60 ± 20 nM

B7: IV-23 (dsDNA)
DNA 1: GGTCTCGAGTCTTCTCAAGGTAC
DNA 2: GTACCTTGAGAAGACTCGAGACC
binding result (Nt.BspD6I [8]): binds
